In PMC9896810, “Crk proteins activate the Rap1 guanine nucleotide exchange factor C3G by segregated adaptor-dependent and -independent mechanisms” (Cell Communication and Signaling : CCS, 2023):

Legend:
[1] = biological target: T1, C3G-APAA (human, UniProt Q13905-1 4-1077, P283A | P284A | L286 | P287 | P289A | P540A | P541A | L543A | P544A | K546A | …); assay: ITC; single-PRM mutant of C3G in the cell titrated with CrkL or CrkL-SH3N, 25 °C, 300 mM NaCl, pH 7.5; SEDPHAT, 1:1 heteroassociation model; N is the competent fraction of C3G; settings: both partners purified
T1 construct: human C3G isoform a, residues 4-1077; only P2 kept, P1, P3 and P4 mutated to Ala; source: E. coli BL21 (DE3), purified (IMAC, TEV digestion, reversed IMAC, SEC); not shown: His, N-terminal, cleaved; Halo, N-terminal, cleaved
T1 sequence (looked up): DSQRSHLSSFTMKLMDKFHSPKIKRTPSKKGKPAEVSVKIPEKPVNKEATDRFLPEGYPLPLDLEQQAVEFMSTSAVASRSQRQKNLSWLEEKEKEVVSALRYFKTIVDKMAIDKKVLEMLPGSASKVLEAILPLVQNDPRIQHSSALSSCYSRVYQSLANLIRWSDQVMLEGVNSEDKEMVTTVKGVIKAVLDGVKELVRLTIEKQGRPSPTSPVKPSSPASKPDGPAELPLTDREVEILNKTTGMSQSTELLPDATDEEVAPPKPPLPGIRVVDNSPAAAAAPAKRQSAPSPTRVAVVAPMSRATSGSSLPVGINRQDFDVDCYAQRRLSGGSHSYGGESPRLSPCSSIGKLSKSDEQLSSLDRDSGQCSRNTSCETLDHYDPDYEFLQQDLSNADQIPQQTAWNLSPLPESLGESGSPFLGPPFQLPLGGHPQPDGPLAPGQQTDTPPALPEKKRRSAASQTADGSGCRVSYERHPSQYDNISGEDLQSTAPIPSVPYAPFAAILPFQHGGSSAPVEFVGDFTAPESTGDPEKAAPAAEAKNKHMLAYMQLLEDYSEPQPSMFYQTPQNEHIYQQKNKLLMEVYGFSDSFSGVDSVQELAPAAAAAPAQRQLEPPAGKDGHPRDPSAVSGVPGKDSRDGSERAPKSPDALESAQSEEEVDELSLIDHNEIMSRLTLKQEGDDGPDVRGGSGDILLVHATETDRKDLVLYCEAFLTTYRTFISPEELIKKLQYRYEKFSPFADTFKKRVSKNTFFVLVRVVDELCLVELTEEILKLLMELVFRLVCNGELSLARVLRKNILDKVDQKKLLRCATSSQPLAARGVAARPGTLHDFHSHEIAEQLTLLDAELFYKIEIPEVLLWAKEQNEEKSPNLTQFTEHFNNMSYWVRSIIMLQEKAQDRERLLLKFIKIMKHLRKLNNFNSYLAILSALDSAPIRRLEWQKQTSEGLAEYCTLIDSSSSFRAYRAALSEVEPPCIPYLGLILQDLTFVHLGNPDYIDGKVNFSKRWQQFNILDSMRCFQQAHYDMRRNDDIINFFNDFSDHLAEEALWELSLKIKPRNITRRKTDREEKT

[2] = biological target: T2, C3G-AAAP-Y554H (human, UniProt Q13905-1 4-1077, P283A | P284A | L286 | P287 | P289A | P453A | P454A | L456A | P457A | K459A | …); assay: as above; settings: both partners purified
T2 construct: human C3G isoform a, residues 4-1077; source: E. coli BL21 (DE3), purified (IMAC, TEV digestion, reversed IMAC, SEC); not shown: His, N-terminal, cleaved; Halo, N-terminal, cleaved
T2 sequence (looked up): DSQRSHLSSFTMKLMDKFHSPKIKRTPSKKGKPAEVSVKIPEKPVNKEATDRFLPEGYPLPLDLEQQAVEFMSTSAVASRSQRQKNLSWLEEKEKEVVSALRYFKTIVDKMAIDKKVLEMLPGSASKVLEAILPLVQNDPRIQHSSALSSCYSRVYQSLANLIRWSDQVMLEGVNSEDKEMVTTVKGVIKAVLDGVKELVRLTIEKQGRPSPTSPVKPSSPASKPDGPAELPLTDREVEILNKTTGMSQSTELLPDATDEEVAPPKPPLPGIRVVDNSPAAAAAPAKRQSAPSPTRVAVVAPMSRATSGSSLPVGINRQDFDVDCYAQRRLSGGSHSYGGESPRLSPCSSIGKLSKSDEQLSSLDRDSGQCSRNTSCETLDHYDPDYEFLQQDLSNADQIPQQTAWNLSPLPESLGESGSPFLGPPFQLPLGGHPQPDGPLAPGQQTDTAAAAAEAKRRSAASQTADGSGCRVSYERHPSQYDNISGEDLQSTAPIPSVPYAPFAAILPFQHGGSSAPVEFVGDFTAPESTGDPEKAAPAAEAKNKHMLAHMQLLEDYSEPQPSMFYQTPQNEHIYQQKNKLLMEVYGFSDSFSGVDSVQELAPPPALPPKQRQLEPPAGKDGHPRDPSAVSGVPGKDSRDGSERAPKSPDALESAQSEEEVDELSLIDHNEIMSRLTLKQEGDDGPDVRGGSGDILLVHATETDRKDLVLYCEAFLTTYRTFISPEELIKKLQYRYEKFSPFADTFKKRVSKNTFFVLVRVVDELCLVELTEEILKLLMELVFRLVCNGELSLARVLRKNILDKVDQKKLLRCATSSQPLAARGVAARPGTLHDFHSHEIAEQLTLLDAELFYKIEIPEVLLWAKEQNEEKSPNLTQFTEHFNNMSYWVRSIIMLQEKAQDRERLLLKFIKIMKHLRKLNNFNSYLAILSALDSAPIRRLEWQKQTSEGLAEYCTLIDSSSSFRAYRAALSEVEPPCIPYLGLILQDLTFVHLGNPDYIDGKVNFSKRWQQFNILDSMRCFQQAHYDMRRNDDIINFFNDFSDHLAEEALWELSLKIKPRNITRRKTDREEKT

B1: CrkL (full-length) (natural protein, human, UniProt P46109 1-303, looked up)
chain: MSSARFDSSDRSAWYMGPVSRQEAQTRLQGQRHGMFLVRDSSTCPGDYVLSVSENSRVSHYIINSLPNRRFKIGDQEFDHLPALLEFYKIHYLDTTTLIEPAPRYPSPPMGSVSAPNLPTAEDNLEYVRTLYDFPGNDAEDLPFKKGEILVIIEKPEEQWWSARNKDGRVGMIPVPYVEKLVRSSPHGKHGNRNSNSYGIPEPAHAYAQPQTTTPLPAVSGSPGAAITPLPSTQNGPVFAKAIQKRVPCAYDKTALALEVGDIVKVTRMNINGQWEGEVNGRKGLFPFTHVKIFDPQNPDENE
notes: human CrkL, residues 1-303, in pETEV15b; also called Crk-like protein; source: E. coli BL21 (DE3), purified (IMAC, TEV digestion, SEC); not shown: His, N-terminal, cleaved
**Q.** B1 was tested. Which Kd [1] did it give?
**A.** Its Kd is 1200 nM.

**Q.** What about the “stoichiometry N” value [1] of the same binder?
**A.** The value was 0.78.

B2: CrkL-SH3N (domain or fragment, human, UniProt P46109 125-182, looked up)
chain: LEYVRTLYDFPGNDAEDLPFKKGEILVIIEKPEEQWWSARNKDGRVGMIPVPYVEKLV
notes: human CrkL, SH3N domain, residues 125-182, in pETEV15b; source: E. coli BL21 (DE3), purified (IMAC, TEV digestion, SEC); not shown: His, N-terminal, cleaved
**Q.** Which Kd [2] does the source give for B2 here?
**A.** Its Kd is 2400 nM.

**Q.** And the “stoichiometry N” value [2]?
**A.** Its value is 0.57.
